According to the RNAGym collection of RNA variant scans (doi:10.1073/pnas.2313332121):

B1: TPR t1 (parent)
chain: GACCAAUCUGCCCUCAGAGCUCGAGAACAUCUUCGGAUGCAGAGGAGGCAGGCUUCGGUGGCGCGAUAGCGCCAACGUCCUCAACCUCCAAUGCAUCCCACCACAUGAUGAUGCCUGAAGAGCCUUGGUUUUUUG

Variants of: B1
Assay: polymerase ribozyme fitness, log enrichment relative to wild type (log ratio); higher = more active; in vitro selection for triplet polymerase activity
How it was run: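 Genotype fitness is the logarithm of its enrichment divided by wild-type enrichment, using inverse-variance-weighted averages of replicates. That logarithm is base 2. Enrichment was measured by Illumina sequencing of input and output libraries from one triplicate in vitro selection round, with frozen incubation at −7 °C, on PCR-built, transcribed mutant libraries of each subunit of a heterodimeric triplet polymerase ribozyme, retaining genotypes with ≥10 input reads and ≥1 read per output.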

Variant | polymerase ribozyme fitness (log ratio)
GACCAAUCUGCCCUCAGAGCUCGAGAACAUCUUCGGAUGCAGAGGAGGCAGGCUUCGGUAGCGCGAUAGCGCCAACGUCCUCAACCACCAAUGCAUCCCACCACAUGAUGAUGCCUGAAGAGCCUUGGUUUUUUG | -0.0639
GACCAAUCUGCCCUCAGAGCUCGAGAACAUCUUCGGAUGCAGAGGAGGCAGGCUUCGGUAGCGCGAUAGCGCCAACGUCCGCAACCUCCAGUGCAUCCCACCACAUGAUGAUGCCCGAAGAGCCUUGGUUUUUUG | -7.03
GACCAAUCUGCCCUCAGAGCUCGAGAACAUCUUCGGAUGCAGAGGAGGCAGGCUUCGGUCGCGUGAUAGCGCCAACGUCCUCAACCUCCAAUGCAUCCCACCACAUGAUGAUGCCUGAAGAGCCUUGGUUUUUUG | -5.26
GACCAAUCUGCCCUCAGAGCUCGAGAACAUCUUCGGAUGCAGAGGAGGCAGGCUUCGGUCGCGCGAUAGCGCCAACGUCCUCACCUUCCAAUGCAUCCCACCACAUGAUGAUGCCUGAAGAGCCUUGGUUUUUUG | -1.01
GACCAAUCUGCCCUCAGAGCUCGAGAACAUCUUCGGAUGCAGAGGAGGCAGGCUUCGGUAGCGCGAUAGCGCCAACGUCCUCAACCUCCAAUGCAUCCCACCACAUGAUGAUGCCUGAAGAGCCUUGGAUUUUUG | -0.603
GACCAAUCUGCCCUCAGAGCUCGAGAACAUCUUCGGAUGCAGAGGAGGCAGGCUUCGGUCGCGCGAUAGCGCCAACGUCCUCAACCUCCAAUGCAUCCCACCACAUGAUGAUGCAUGAAGAGCCUUGGUUUUUUG | 0.199
GACCAAUCUGCCCUCAGAGCUCGAGAACAUCUUCGGAUGCAGAGGAGGCAGGCUUCGGUCGCGCGAUAGCGCCAACGUCCUCAACCUCCAAUGCAUCCCUCCACAUGAUGAUGACUGAAGAGCCUUGGUUUUUUG | -3.1
GACCAAUCUGCCCUCAGAGCUCGAGAACAUCUUCGGAUGCAGAGGAGGCAGGCUUCGGUCGCGCGAUAGCGCCAACGUCCUCAUCCUCCAAUGCAUCCCACCACAUGAUGAUGCCUGAAGAGCCUUGGUUUUUUG | -0.735
GACCAAUCUGCCCUCAGAGCUCGAGAACAUCUUCGGAUGCAGAGGAGGCAGGCUUCGGUCGCGCGAUAGCGCCAACGUCCUCAACCUCCAAUGCAUCCCACCACAUGAUGAUGCCUGAAGUGCCUUGGUUUUUUG | 1.85
GACCAAUCUGCCCUCAGAGCUCGAGAACAUCUUCGGAUGCAGAGGAGGCAGGCUUCGGUCGCGCGAUAGCGCCAACGUCCUCAACCUCCAAUGGAACCCACCCCAUGAUGAUGCCUGAAGAGCCUUGGUUUUUUG | -6.59
GACCAAUCUGCCCUCAGAGCUCGAGAACAUCUUCGGAUGCAGAGGAGGCAGGCUUCGGUAGCGCGAUAGCGCCAACGUCCUCAACCGCCAAUGCAUCCCAUCACAUGAUGAUGCCUGAAGAGCCUUGGUUUUUUG | 0.254
GACCAAUCUGCCCUCAGAGCUCGAGAACAUCUUCGGAUGCAGAGGAGGCAGGCUUCGGUCGCGCGAUGGCGCCAACGUCCUCAACCUCCAAUGCAUCCCACCACAUGAUGAUGCCUGAAGAGCCUUGGUUUUUUG | -4.8
GACCAAUCUGCCCUCAGAGCUCGAGAACAUCUUCGGAUGCAGAGGAGGCAGGCUUCGGUCGCGCGAUAGCGCCAACGUCCUCAACAUCCAAUGCAUGCCACCACAUGAUGAUGCCCGAAGAGCCUUGGUUUUUUG | -4.3
GACCAAUCUGCCCUCAGAGCUCGAGAACAUCUUCGGAUGCAGAGGAGGCAGGCUUCGGUCGCGCGAUAGCGCCAACGUCCUCAACCUCCAAUGUAUCCCACCACAUGAUGAUGCCUGAAGAGCCUUGGUUUUUUG | -0.143
GACCAAUCUGCCCUCAGAGCUCGAGAACAUCUUCGGAUGCAGAGGAGGCAGGCUUCGGUCGCGCGAUAGCGCCAACGUCCUCAACCUCCAAUGGAUCCCACCACAUGAUGAUGCCUGAAGAGCCUUGGUUUUUUG | -1.12
GACCAAUCUGCCCUCAGAGCUCGAGAACAUCUUCGGAUGCAGAGGAGGCAGGCUUCGGUCGCGCGAUAGCGCUAACGUCCUCAACCUCCAAUGCAUCCCACCACAUGAUGAUGCCUGAAGAGCCUUGGUUUUUUG | -1.41
GACCAAUCUGCCCUCAGAGCUCGAGAACAUCUUCGGAUGCAGAGGAGGCAGGCUUCGGUAGCGCGAUAGCGCCAACGUCCUCAACCACCAAUGCAUCCCACCACAUGAUGAUGCCUGAGGAGCCCUGGUUUUUUG | -0.987
GACCAAUCUGCCCUCAGAGCUCGAGAACAUCUUCGGAUGCAGAGGAGGCAGGCUUCGGUCGCGCGAUAGCGCCAACGUCCUCAACCUUCAAUGCAUCCCACCACAUGAUGAUGCCUGAAGAGCCUUGGUUUUUUG | -0.669
GACCAAUCUGCCCUCAGAGCUCGAGAACAUCUUCGGAUGCAGAGGAGGCAGGCUUCGGUAGCGCGAUAGCGCCAACGUCCUCAACCGCCAAUGCAUCCCACGACAUGAUGAUACCUGAAGAGCCUUGGUUUUUUG | -6.32
GACCAAUCUGCCCUCAGAGCUCGAGAACAUCUUCGGAUGCAGAGGAGGCAGGCUUCGGUCGCGCGAUAGCGCCAACGUCCUCAACCUCCAAUGUAUCCCACCACAUGAUGAUGCCUGAAGAGCUUUGGUUUUUUG | 1.26
GACCAAUCUGCCCUCAGAGCUCGAGAACAUCUUCGGAUGCAGAGGAGGCAGGCUUCGGUAGCGCGAUAGCGCCAACGUCCUCAACCUCCAAUGCAUCCCACCACAUGAUGAUGCCUGAAGAGCCUUGGUUAUUUG | 0.546

Variant | polymerase ribozyme fitness (log ratio)
GACCAAUCUGCCCUCAGAGCUCGAGAACAUCUUCGGAUGCAGAGGAGGCAGGCUUCGGUAGCGCGAUAGCGCCAACGGCCUCAACCUCCAAUGCAUCCCACCACAUGAUGAUCCCUGAAGAGCCUUGGUUUUGUG | -3.73
GACCAAUCUGCCCUCAGAGCUCGAGAACAUCUUCGGAUGCAGAGGAGGCAGGCUUCGGUAGCGCGAUAGCGCCAACGACCUCAUCCUCCAAUACAUCCCACAACAUGAUGAUGCCUGAAGAGCCUUGGUUUUUUG | -5
GACCAAUCUGCCCUCAGAGCUCGAGAACAUCUUCGGAUGCAGAGGAGGCAGGCUUCGGUCGCGCGAUAGCGCCAACGUCCUCAACCUCCAAUGGAUCCCACCACAUGAUGAUGCCCGAAGAGUCUUGGUUUUUUG | -3.28
GACCAAUCUGCCCUCAGAGCUCGAGAACAUCUUCGGAUGCAGAGGAGGCAGGCUUCGGUCGCGCGAUAGCGCCAACGUCCUCAACCUCCAAUGCAUCCCACCACUUGAUGAUGCCUGAAGAGCCUUGGUUUUUUG | -3.07
GACCAAUCUGCCCUCAGAGCUCGAGAACAUCUUCGGAUGCAGAGGAGGCAGGCUUCGGUAGCGCGAUAGCGCCAACGUCCUCAACCUCCAAUGCAUCCCACCACAUGAAGAUGCCUGAAGAGCCUUGGUUUUUUG | -5.33
GACCAAUCUGCCCUCAGAGCUCGAGAACAUCUUCGGAUGCAGAGGAGGCAGGCUUCGGUCGCGCGAUAGCGCCAACGUCCUCAACCUCCAAUGCAUCCCACCACAUGAUGAUGCCUGAAGAGCCUUGGUUUUUUG | -0.366
GACCAAUCUGCCCUCAGAGCUCGAGAACAUCUUCGGAUGCAGAGGAGGCAGGCUUCGGUCGCGCGAUAGCGCCAACGUCCUCAACCUCCAAUGCAUCUCACCACAUGAUGAUGCCUGAAGAGCCUUGGUUUUUUG | -0.75
GACCAAUCUGCCCUCAGAGCUCGAGAACAUCUUCGGAUGCAGAGGAGGCAGGCUUCGGUAGCGCGAUAGCGCCAACGUCCUCAACCUCCAAUGCAUCCCACCACAUGAAGAUGCCUGAAGAGCCUUGGUUUUGUG | -5.4
GACCAAUCUGCCCUCAGAGCUCGAGAACAUCUUCGGAUGCAGAGGAGGCAGGCUUCGGUCGCGCGAUAGCGCCAACGUCCUCAACAUCCAAUGCAUCCCACCACAUGAUGAUGCCUGAAGAGCCUUGGUUUUUUG | -2.44
GACCAAUCUGCCCUCAGAGCUCGAGAACAUCUUCGGAUGCAGAGGAGGCAGGCUUCGGUCGCGCGAUAGCGCCAACGUCCUCAACUUCCAAUGCAUCCCACCACAUGAUGAUGCCUGAAGAGCCUUGGUUUUUUG | 0.269
GACCAAUCUGCCCUCAGAGCUCGAGAACAUCUUCGGAUGCAGAGGAGGCAGGCUUCGGUCGCGCGAUAGCGCCAACGUCCUCAACCUCCAAUGCAUCCCACAACAUGAUAAUGCCUGAAGAGCCUUGGUUUUUUG | -4.88
GACCAAUCUGCCCUCAGAGCUCGAGAACAUCUUCGGAUGCAGAGGAGGCAGGCUUCGGUCGCGCGUUAGCGCCAACGUCCUCAACCUCCAAUGCAUCCCACCACAUGAUGAUACCUGAAGAGCCUCGGUUUUUUG | -4.03
GACCAAUCUGCCCUCAGAGCUCGAGAACAUCUUCGGAUGCAGAGGAGGCAGGCUUCGGUAGCGCGAUAGCGCCAACGUCCUCAACCUCCAAUGCAUCCCACCACAUGAUGAUGCCUGAAGAGCCGUGGUUUUUUG | -0.67
GACCAAUCUGCCCUCAGAGCUCGAGAACAUCUUCGGAUGCAGAGGAGGCAGGCUUCGGUAGCGCGAUAGCGCCAACGUCCUCAACCUCCAAUGCAUCCCACCACAUGAUGAACCCUGAAGAGCCUUGGUUUUUUG | -1.56
GACCAAUCUGCCCUCAGAGCUCGAGAACAUCUUCGGAUGCAGAGGAGGCAGGCUUCGGUCGCGCGAUAGAGCCAACGACCUCAAGCUCCAAUGCAUCUCACCACAUGAUGAUGCCUCAAGAGCCUUGGUUUUUUG | -6.56
GACCAAUCUGCCCUCAGAGCUCGAGAACAUCUUCGGAUGCAGAGGAGGCAGGCUUCGGUCGCGGGAUAGCGCCAACGUCCUCAACCUCCGAUGCAUCCCACCACCUGAUGAUGCCUCAAGAGCCUUGAUUUUCGG | -4.98
GACCAAUCUGCCCUCAGAGCUCGAGAACAUCUUCGGAUGCAGAGGAGGCAGGCUUCGGUAGCGCGAUAGCGCCAACGUCCUCAACCUCCAAUGCAUCCCACCACAUGAUGAUGCCUGAAGAGCCUUGUUUUUUUG | -1.57
GACCAAUCUGCCCUCAGAGCUCGAGAACAUCUUCGGAUGCAGAGGAGGCAGGCUUCGGUAGCGCGAUAGCGCCAACGUCCUCAACCUCCAAUGCAUCCCACCACAUGAUGAUGCCUGAAGAGCCUUGCUUUUUUG | -2.6
GACCAAUCUGCCCUCAGAGCUCGAGAACAUCUUCGGAUGCAGAGGAGGCAGGCUUCGGUCGCGCGAUAGCGCCAACGUCCUCAACCUCCAAUGCGUCCCACCACAUGAUGAUGCCUGAAAAGCCUUGGUCUUUUG | 0.59
GACCAAUCUGCCCUCAGAGCUCGAGAACAUCUUCGGAUGCAGAGGAGGCAGGCUUCGGUAGCGCGAUAGCGCCAACGUCCUCAACCUCCAAUGCAUCCCACCACAUGAUGAUGCCUGAAGAGCCUUGGUCUUUUG | -0.0253
GACCAAUCUGCCCUCAGAGCUCGAGAACAUCUUCGGAUGCAGAGGAGGCAGGCUUCGGUAGCGCGAUAGCGCCAACGACCUCAACCUCCAAUGCAUCCCACCACAUGAUGAUGCCUGAAGAGUCUUGGUUUUUUG | 0.832
